What was measured:
β-amyloid (1-42) [1] = assay: sandwich EIA, solid phase BAN-50a, label BA-27a-HRP; against β-amyloid (1-40)
β-amyloid (1-39) [2] = assay: as above
β-amyloid (1-38) [3] = assay: as above
β-amyloid (1-40) [4] = assay: sandwich EIA, solid phase BAN-052a, label BA-27a-HRP
β-amyloid (1-40) [5] = assay: sandwich EIA, solid phase BA-27a, label BAN-052a-HRP
β-amyloid (1-40) [6] = assay: competitive EIA with β-Gal-labeled βA(1-40); unlabeled peptide varied
β-amyloid (1-40) [7] = assay: sandwich EIA, solid phase BAN-50a, label BA-27a-HRP (1000-fold dilution)
β-amyloid (1-42) [8] = assay: sandwich EIA, solid phase BAN-50a, label BA-27a-HRP
β-amyloid (1-39) [9] = assay: as above
β-amyloid (1-38) [10] = assay: as above
β-amyloid (1-40) [11] = assay: sandwich EIA, solid phase BAN-50a, label BA-27a-HRP (1500-fold dilution)

- cross reactivity (β-amyloid (1-42) [1]): < 2%
- cross reactivity (β-amyloid (1-39) [2]): < 2%
- cross reactivity (β-amyloid (1-38) [3]): < 2%
- detection sensitivity (β-amyloid (1-40) [4]): 0.6 pg/well
- detection sensitivity (β-amyloid (1-40) [5]): 10 pg/well
- IC50 (β-amyloid (1-40) [6]): 0.2 µM
- detection sensitivity (β-amyloid (1-40) [7]): 0.2 pg/well
- detection sensitivity (β-amyloid (1-42) [8]): 18 pg/well
- detection sensitivity (β-amyloid (1-39) [9]): 17 pg/well
- detection sensitivity (β-amyloid (1-38) [10]): 85 pg/well
- detection sensitivity (β-amyloid (1-40) [11]): 0.2 pg/well
Substance: BA-27a (antibody)
